Experiment: yeast display, Sf9 membrane polyspecificity reagent, FACS + sequencing; frameworks hold sequencing errors
How it was run: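 Polyreactivity labels are assigned by the sorting gate from which each nanobody was recovered. The gates were low and high (top ~1%), set on anti-HA fluorescence for expression and streptavidin fluorescence for reagent binding. Before sorting, galactose-induced (36–48 hours) yeast display cells were stained for 1 hour at 4 °C with 10% biotinylated, detergent-solubilized Sf9 membrane reagent.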

| Sequence | polyreactivity (PSR sort gate) |
| --- | --- |
| QVQLVESGGGLVQAGGSLRLSCAASGFTFGYYAMGWYRQAPGKERELVAAISSSGGRTYYADSVKGRFTISRDNAKNTVYLQMNSMKPEDTAVYYCAAVYIRYPIQYSLLRYDYWGQGTQVTVSA | high polyreactivity |
| QVQLVESGGGLVQAGGSLRLSCAASGFTFGYYAMGWYRQAPGKERELVAAITFRGGRTYYADSVKGRFTISRDNAKNTVYLQMNSLKPEDTAVYYCAALSLVRYYHNANYYPYYYWGQGTQVTVSS | high polyreactivity |
| QVQLVESGGGLVQAGGSLRLSCAASGFTFGYYAMGWYRQAPGKERELVATITSSGASTYADSVKGRFTISRDNAKNTVYLQMNSLKPEDTAVYYCAADRLPSYWSWYGYDYWGQGTQVTVSS | high polyreactivity |
| QVQLVESGGGLVQAGGSLRLSCAASGFTFGYYAMGWYRQAPGKEREVVAAIRGGGRTNYADSVKGRFTISRDNAKITVYLQMNSLKPEDTAVYYCNADRLRTLRGDDWGQGSQVTVSS | low polyreactivity |
| QVQLVESGGGLVQAGGSLRLSCAASGFTFGYYDMGWYRQAPGKERELVAAISSSDVSTYADSVKGRFTISRDNAKNTVYLQMNSLKPEDTAVYYCAADFWYSYYYWGQGTQVTVSS | high polyreactivity |
| QVQLVESGGGLVQAGGSLRLSCAASGFTFGYYGMGSYRQAPGKERELVAAISWSGGSTYYADSVKGRFTISRDNAKNTVYLQMNSLKPEDTAVYYCAASAGYASNYWGQGTQVTVSS | low polyreactivity |
| QVQLVESGGGLVQAGGSLRLSCAASGFTFGYYTMGWYRQAPGKERELVAAISWSGGSTYYADSVKGRFTISRDNAKNTVYLQMNSLKPEDTAVYYCAAYRYGYDYWGQGTQVTVSS | high polyreactivity |
| QVQLVESGGGLVQAGGSLRLSCAASGFTFHHYAMGWYRQAPGKERELVAAITRSGGTTYYADSVKGRFTISRDNAKNTVYLQMNRLKPEDTAVYYCAADTGAKRYYRYDYWGQGTQVTVSS | high polyreactivity |
| QVQLVESGGGLVQAGGSLRLSCAASGFTFHKNAMGWYRQAPGKERELVAAITYRGGSTSYADSVKGRFTISRDNAKNTFYLQMNSLKPEDTAVYYCAAELRPYITYDGPRKKFYYWGQGTQVTVSS | high polyreactivity |
| QVQLVESGGGLVQAGGSLRLSCAASGFTFHKYAMGWYRQAPGKERELVAAISWSGDRTYYADSVKGRFTISRDNAKNTVYLQMNSLKPEDTAVYYCAAATRYSFYIKYDYWGQGTQVTVSS | high polyreactivity |
| QVQLVESGGGLVQAGGSLRLSCAASGFTFHNNVMGWYRQAPGKEMELVATISKSGGSTYYADSVKGRFTISRDNAKNTVYLQMNSLKPEDTAVYYCARSYRDYGRYGYWGQGTQVTVSS | high polyreactivity |
| QVQLVESGGGLVQAGGSLRLSCAASGFTFHYNAMGWYRQAPRKEREFVAAISGSGDRTYYADSVKGRFTISRDNAKNTVYLQMNSLKPEDTAVYYCATSVRQNYFYSYDYWGQGTQVTVSS | high polyreactivity |
| QVQLVESGGGLVQAGGSLRLSCAASGFTFHYYTMGWYRQAPGKERELVASINYSGGRTYYADSVKGRFTISRDNAKNTVYLQMNSLKPEDTAVYYCNARYKSTYYYWGLGTQVTVSS | high polyreactivity |
| QVQLVESGGGLVQAGGSLRLSCAASGFTFIRNAMGWYRQAPVKERELVAAISKSGGTTYYADSVKGRFTISRDNAKNTVYLQMNSLKPEDTAVYYCNKGIGRSDPDYRYYYWGQGTQVTVSS | high polyreactivity |
| QVQLVESGGGLVQAGGSLRLSCAASGFTFIRNGMGWYRQAPGKERELVAAINSRGGNTYYADSVKGRFTISRDNAKNTVYLQMNSLKPEDTAVYYCNRVVQRWSTQYGYWGQGTQVTVSS | high polyreactivity |
| QVQLVESGGGLVQAGGSLRLSCAASGFTFIRYAMGWYRQAPGKERELVASISNRGGRTYYADSVKGRFTISRDNAKNTVYLQMNSLKPEDTAVYYCAAGYSTYRAVWTDNNYWGQGTQVTVSS | high polyreactivity |
| QVQLVESGGGLVQAGGSLRLSCAASGFTFISNAMGWYRQAPGKERELVAAISSSGGRTYYADSVKGRFTISRDNAKNTVYLQMNRLKPEDTAVYYCNAVRSLLYSRKIEYDYWGQGTQVTVSS | low polyreactivity |
| QVQLVESGGGLVQAGGSLRLSCAASGFTFISYAMGWYRQAPGKERELVADISSSGDSTSYADSVKGRFTISRDNAKNTVYLQMNSLKPEDTAVYYCAAGDGYVYGEYDYWGQGTQVTVSS | low polyreactivity |
| QVQLVESGGGLVQAGGSLRLSCAASGFTFITNAMGWYRQAPGNERELVASISIGGSTNYADSVKGRFTISRDNAKNTVYLQMNSLKPEDTAVYYCAARVYRRLFLPGRFGRPLGYWGQGTQVTVSS | high polyreactivity |
| QVQLVESGGGLVQAGGSLRLSCAASGFTFIYYAMGRYRQAPRKERELVAAISSGGSTYYADSVKGRFTISRDNAKNTVYLQMNSLKPEDTAVYYCAAGYWWPVQYYSRYNYWGQGTQVTVSS | high polyreactivity |
| QVQLVESGGGLVQAGGSLRLSCAASGFTFIYYAMGWYRQAPGKERELVAAISRVDSTYYADSVKGRFTISSDNAKNTIYLQMNRLKPEDTAVYYFAAASQVRRDHGYWGQGTQVTVSS | low polyreactivity |
| QVQLVESGGGLVQAGGSLRLSCAASGFTFKAYAMGWYRQAPGKERELVAAITKSGGRTFYADSVKGRFTISRDTAKNTVYFQMNSLKPEDTAVYYCAASYTVYYWGQGTQVTVSS | high polyreactivity |

| Sequence | polyreactivity (PSR sort gate) |
| --- | --- |
| QVQLVESGGGLVQAGGSLRLSCAASGFTFKAYAMGWYRQAPGKERELVAAITRSGGRTYYADSVKGRFTISRDNAKNTVYLQMNSLKPEDTAVYYCARDYTRYAYDHWGQGTQVTVSS | high polyreactivity |
| QVQLVESGGGLVQAGGSLRLSCAASGFTFKFNAMGWYRQAPGKERELVAAISYSGGSTYYADSVKGRFTISRDNAKNTVYLQMNSLKPEDTAVYYCAARAYWYGASYYYWGQGPQVTVSS | high polyreactivity |
| QVQLVESGGGLVQAGGSLRLSCAASGFTFKFNTMGWYRQAPGKERELVAANSWRGGDTSYADSVKGRFTISRENAKNTVFLQMYSLKPEDNAVYYCAARSTSIGQRSLHYGYWGQGTQVTVSS | low polyreactivity |
| QVQLVESGGGLVQAGGSLRLSCAASGFTFKGNAMGWYIQAPGKERELVATITQSAGYTYYADSVKGRFTISRDNAKNTVYLQLNSLKPEDTAVYYCNADPITLYYYSWYNYWGQGTQVTVSS | low polyreactivity |
| QVQLVESGGGLVQAGGSLRLSCAASGFTFKGYAMGWYRQAPGKERELVAAITRGGSTYYADSVKGRFTISRDNAKNTVYLLMNSLKPEDTAVYYCAARGRGHGTTPNDYWGQGTQVTVSS | high polyreactivity |
| QVQLVESGGGLVQAGGSLRLSCAASGFTFKKNAMGWYRQATGKERELVAAIRSGTSTKYADSVKGRFTISRDNAKNTVYLQMNSLKPEDTAVYYCAAEEPEYLATWRNRRYDYWGQGTQVTVSS | low polyreactivity |
| QVQLVESGGGLVQAGGSLRLSCAASGFTFKSYAMGWSRQAPGKERELVAAISRGGSTYYADSVKGRFTISRDNAKNTVYLQMNSLKPEDTAVYYCNKTRYSRSYYEYDYWGQGTQVTVSS | low polyreactivity |
| QVQLVESGGGLVQAGGSLRLSCAASGFTFKYNAMGWYRQAPGKERELVAGITLRGGSTYYADSVKGRFTISRDNAKNTVYLQMNSLKPEDTAVYYCGAAASNWREYWYWGQGTQVTVSS | low polyreactivity |
| QVQLVESGGGLVQAGGSLRLSCAASGFTFKYNAMGWYRQAPGKERELVASISRGSSTNYADSVKGRFTISRDNAKNTVYLQMNSLKPEDTAVYYCAKGYRPWGSYDYWGQGTQVTVSS | high polyreactivity |
| QVQLVESGGGLVQAGGSLRLSCAASGFTFKYNVMGWYRQAPGKERELVAAISKRGGNTYYADSVKGRFTISRDNAKNTVYLQMNSLKPEDTAVYYCAADPTSPETSGQGYDYWGQGTQVTVSS | high polyreactivity |
| QVQLVESGGGLVQAGGSLRLSCAASGFTFKYYAMGWYRPAPGKERELVAAIRRSAGSTNYADSVKGRFTISRDNAKNTVYLQMNSLKPEDTAVYYCNTVGTRQPMDYWGQGTQVTVSS | high polyreactivity |
| QVQLVESGGGLVQAGGSLRLSCAASGFTFKYYVMGWSRQAPGKERELVASLSKRGGSTRYADSVKGRFTISRDNAKTTFYLQMHSLKPEDTAVYYCAAAFVRPPPYVGYSRFDYWGQGTQVTLSS | high polyreactivity |
| QVQLVESGGGLVQAGGSLRLSCAASGFTFKYYVMGWYRQAPGKAREWVAAITNGGSTYYADSVKGRFTISRDNAKNTVYLQMNSLKPEDTAVYYCAASAYYHWLFDYRGQGTQVTVSS | high polyreactivity |
| QVQLVESGGGLVQAGGSLRLSCAASGFTFKYYVMGWYRQAPGKERELVASISKRGGSRNYADSVKGRFTISRDNAKNTVYLQMNSLKPEDTAVYYCAADYPATSGPRHYYWGQGTQVTVSS | high polyreactivity |
| QVQLVESGGGLVQAGGSLRLSCAASGFTFLDSYAMGWYRQAPGKERELVAGITWSVGTTYYADSVKGRFTISRDNAKNTVYLHMNSLKPEDTAVYYCNAVIDVHDPEYDYWGQGTQVTVSS | low polyreactivity |
| QVQLVESGGGLVQAGGSLRLSCAASGFTFLGNAMGWYRQAPGKERELVATITSGGNTKYADSVKGRFTISRDNAKNTVYFQINSLKPEDTAVYYFARDRKRQADDICEFDYWGQGSQVTVSS | low polyreactivity |
| QVQLVESGGGLVQAGGSLRLSCAASGFTFLGNVMGWYRQAPGKERELVAAISITGSTSYADSVKGRFTISRDNAKNTVYLQMNSLKPEDTAVYYCAADGGQVDDSATRLYYWGQGTQVTVSS | high polyreactivity |
| QVQLVESGGGLVQAGGSLRLSCAASGFTFLINAMGWYRQAPGKERELVAAIRSGGSTNYADSVKGRFTISRDNAKNSVYFQMNSLKPEDTAVYYCAARRYYPYKYRYGYWGQGTQVTVSS | high polyreactivity |
| QVQLVESGGGLVQAGGSLRLSCAASGFTFLKNAMGWYRQAPGKERELVAAITSSGGRTYYADSVKGRFTISRDNAKNTVYLQMNSLKPEDTAVYFCIKGPLPGYDYWGQGTQVTVSS | high polyreactivity |
| QVQLVESGGGLVQAGGSLRLSCAASGFTFLLYAMGWYRQAPGKERELVAAITWSTGNTYYADSVKGRFTISRDNAKNTVYLQMNSLKPEDTAVYYCYAEYLVITWYGGVEFDYWGQGTQVTVSS | low polyreactivity |
| QVQLVESGGGLVQAGGSLRLSCAASGFTFLPAYAMGWYRQAPGKERELVAAITRGGSTYYADSVKGRFTISRDNAKNTVYLQMNSLKPEDSAVYYCNADQKFGFYRSVGDDYWGQGTQVTVSS | low polyreactivity |
